# “Also recorded” adds a separate entry of the source.
# T1: Furin cleavage of recombinant GP73-HIS (Homo sapiens, UniProt Q8NBJ4)
# T1 construct: purchased Biolegend
# T1 sequence (Q8NBJ4 36-401 limits assumed): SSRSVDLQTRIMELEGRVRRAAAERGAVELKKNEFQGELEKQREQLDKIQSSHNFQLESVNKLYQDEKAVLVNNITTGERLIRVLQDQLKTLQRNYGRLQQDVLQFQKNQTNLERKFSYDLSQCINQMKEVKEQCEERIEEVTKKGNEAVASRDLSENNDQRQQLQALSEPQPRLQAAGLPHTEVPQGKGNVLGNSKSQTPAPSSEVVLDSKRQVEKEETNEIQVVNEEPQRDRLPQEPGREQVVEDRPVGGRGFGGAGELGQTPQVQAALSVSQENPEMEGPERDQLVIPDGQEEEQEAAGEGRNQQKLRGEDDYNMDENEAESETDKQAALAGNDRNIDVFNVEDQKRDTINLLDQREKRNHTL
# B1: G2-2: scFv clone with human IgG1 heavy and human Igk light constant regions; VH/VL SEQ ID NO: 2 and 3; binds rGP73 AA 36-55 (antibody, V domains shown)
# VH: EVQLLQSGGGVVQPGRSLRLSCAASGFTFSSYGMSWVRQAPGKGLEWVAVISYDGSNKYYADSVKGRFTISRDNSKNTLYLQMNSLRAEDTAVYYCAREGSAGMDVWGQGTTVTVSS
# VL: DIQMTQPSSLSASPGASASLTCTLRSDISVGFHRIYWYQQKPGSPPQYLLRYKSDSDKQQGSGVPSRFSGSKDASANAGILLISGLQSDDEADYYCVIWHTSGVVFGGGTKVEIK
# modifications: human IgG1 and Igk constant regions not cited; G2-2 heavy chain variable region (VH); G2-2 light chain variable region (VL)
# What was measured:
# peptide AA 36-55 of GP73 = peptide AA 36-55 of GP73 (Homo sapiens, UniProt Q8NBJ4); experiment: Competition peptide ELISA with HRP-labeled antibodies; assay type: binding; details: unlabeled competing antibody at high concentration; binding antibody G2-1-HRP
# Experimental: A peptide ELISA was performed using horse radish peroxidase labeled G2-1 (G2-1-HRP) or G2-2 (G2-2-HRP) as binding antibodies and G2-1 or G2-2 as competing antibodies. […] Binding to peptide AA 36-55 of GP73 served as positive control (filled circle), negative control was binding to an unrelated peptide (filled diamond) as described in Example 5.
# ELISA was carried out in 96 well plates coated overnight with biotinylated peptide and blocked with 2% gelatine. Horse radish peroxidase labeled antibodies G2-1 (G2-1-HRP) or G2-2 (G2-2-HRP) were applied and incubated for 1.5 hours. For competition testing non labeled G2-1 or G2-2 was added at high concentration. For pH dependent binding the antibodies were applied in phosphate buffer pH 4.4, 5.4, 6.4 or 7.4. After extensive washing a chromogenic substrate (TMB Amersham) was added to detect peroxidase. The reaction was stopped and absorbance was read at 450 nm.
# [1] = target: T1, Furin cleavage of recombinant GP73-HIS; experiment: Furin cleavage of GP73-HIS depending on antibody binding (capture ELISA); assay type: biochemical; details: 3 U and 1.5 U of Furin; 2 hours at 30° C.
# From the text: Measurements of Furin cleavage of GP73 using a range from 0 units to 3 units of Furin are depicted.
# Testing of Furin cleavage exploits the fact that antibodies G2-1 and G2-2 bind GP73 N-terminal of or at the furin cleavage site 56R whereas recombinant GP73 with C-terminal HIS tag (GP73-HIS) is detected by anti HIS antibody at the C-terminus of GP73. Plate bound anti human IgG can capture G2-1 or G2-2, which binds GP73-HIS. If furin cleavage occurs in a setting where G2-1 or G2-2 have already bound to GP73-HIS, only N-terminal part of GP73 will reside at the G2 antibodies. In contrast, if furin cleavage is hindered by G2 antibodies, GP73-HIS can be detected by an anti HIS antibody.
# Furin cleavage was carried out in 1.5 ml tubes. To test if G2 antibodies can hinder furin cleavage recombinant GOLPH-HIS protein (Biolegend) and G2-2 or G2-1 was incubated for 2 hours in 100 mM HEPES and 1 mM CaCl2 buffer pH 7.5 to allow antibody binding to GP73. […]
# From each reaction 2×100 ul were transferred to wells of a 96 well plate that had been coated over night with anti human IgG and was blocked with 1% gelatine in PBS. After one hour incubation at room temperature the plate was washed, incubated with anti HIS-hrp antibody for one hour, washed again, incubated with a chromogenic substrate (TMB Amersham) to detect peroxidase, stopped and read at 450 nm.
# HuH7 cells = experiment: Internalization of pHrodo Green labeled antibodies after pre-incubation with conditioned media containing soluble GP73; assay type: cell-based, human; details: 10 ug/ml pHrodo Green labeled antibody pre-incubated over night, 24 h at 37° C.
# Experimental: Antibody internalization was measured by FACS using the pH-sensitive dye pHrodo Green coupled to each antibody. […] The internalization of G2-2 that binds to rGP73 is not altered as described in Example 6.
# Labeled antibodies were purified by size exclusion (40K MWCO). A non binding Isotype Antibody that was not labeled with pHrodo® Green STP Ester (Iso.) was used as control for background fluorescence. 10 ug/ml of each antibody was pre-incubated over night at 4° C. with either fresh culture media or conditioned media. As conditioned media served either supernatant from HEK 293 or HEK 293 GP73-myc cells cultured for 72 hours, that was dialyzed (10 k MWCO) against 1 L fresh media each. To confirm the presence of secreted soluble GP73 after dialysis supernatants were analysed by Western Blot using an anti-myc antibody. 300 ul/well of each pre-incubated antibody was given to 0.6×10^6HuH7 cells growing in 24 well plates for 24 h at 37° C. and 5% CO2. Cells were washed and analysed by FACS.
molecule,measurement,setting,value
B1,competition with G2-1-HRP for peptide binding,peptide AA 36-55 of GP73,Competitive inhibition
same,Furin cleavage of GP73 after preincubation with antibody,[1],significant reduction in Furin cleavage
same,effect of conditioned media containing soluble GP73 on antibody internalization / cell surface binding,HuH7 cells,unaffected; also recorded: not altered

# Source: patent US11697680B2, “Anti-GP73 antibodies and immunoconjugates” (CUREAB GMBH, priority 2016, dated 2023)
